Measured values as given in the supplement of paper PMC10126150.
± gives the standard deviation of the averaged measurements.

System: ATP
Assay: switch fluorescence ratio, 500 uM ATP over buffer (Cy3 cluster intensity, sum of 5 cycles each) (fold (ratio)); higher = stronger signal-on switching upon ATP binding; sequences stand for … in TCGTCGGCAGCGTCAGATGTGTATAAGAGACAGTTTTTTTTTTTTTTTTTTTTTTTTT…TC
Settings: aptamer strand: ATP DNA aptamer (quencher-CACCTGGGGGAGTATTGCGGAGGAAGG + anchor), 100 nM annealed; ATP concentration: 500 uM
How it was run: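 Clusters with intensities outside 100-1000 RFU were excluded. The remaining Cy3-labelled switching-strand clusters on a modified Illumina MiSeq flow-cell had been annealed to 100 nM quencher-labelled ATP aptamer and imaged in selection buffer, then after 15 min with 500 uM ATP at 22 °C, for five cycles separated by NaOH stripping and re-annealing. The fluorescence ratio, averaged per switch-domain sequence, is each cluster's summed target-cycle Cy3 intensity over its summed buffer-cycle Cy3 intensity.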
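Also: ATP exposure 15 min at 22 °C before imaging.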

Sequence | switch fluorescence ratio
TGTGTTGGTT | 0.9939 ± 0.0073
TGTGTTTCAA | 1.03 ± 0.013
TGTGTTTCTG | 1.02 ± 0.019
TGTGTTTTCT | 0.9862 ± 0.003
TGTGTTTTTT | 0.999 ± 0.02
TGTTAAAAAC | 1.082 ± 0.0085
TGTTAAAAAT | 1.01 ± 0.029
TGTTAAAATC | 0.984 ± 0.058
TGTTAAAGCG | 1.06 ± 0.049
TGTTAAAGGA | 0.991 ± 0.022
TGTTAAATGT | 1.005 ± 0.01
TGTTAAGATA | 1.02 ± 0.092
TGTTACCAGC | 1.01 ± 0.014
TGTTACGATA | 1.1181 ± 0.00041
TGTTAGGATT | 0.997 ± 0.014
TGTTAGGTGA | 1.07 ± 0.011
TGTTAGTGGT | 1.01 ± 0.023
TGTTATAATC | 1.08 ± 0.064
TGTTATAGAT | 0.987 ± 0.025
TGTTATAGTT | 1.01 ± 0.055
TGTTATATAT | 0.993 ± 0.032
TGTTATCAGC | 1 ± 0.047
TGTTATGTCC | 1 ± 0.023
TGTTATTTCA | 1.02 ± 0.0065
TGTTCATATA | 1.01 ± 0.021

Sequence | switch fluorescence ratio
TGTTCCGGGG | 1.013 ± 0.0063
TGTTCGGCGG | 1.02 ± 0.036
TGTTCTAAAG | 0.997 ± 0.025
TGTTCTAGA | 0.987 ± 0.053
TGTTCTGGGG | 1.01 ± 0.019
TGTTGAAATC | 1.01 ± 0.076
TGTTGAGCAT | 1.09 ± 0.089
TGTTGCAATA | 1.24 ± 0.4
TGTTGCATAG | 1.01 ± 0.047
TGTTGCGTGC | 1.03 ± 0.038
TGTTGGAGAA | 0.988 ± 0.011
TGTTGGAGTG | 1.003 ± 0.0044
TGTTGGCCAG | 0.9797 ± 0.0075
TGTTGGCGGG | 0.989 ± 0.015
TGTTGGGATG | 1.01 ± 0.02
TGTTGGGCTC | 0.989 ± 0.047
TGTTGGGGAT | 0.983 ± 0.029
TGTTGGGGGC | 1.03 ± 0.12
TGTTGGGTTG | 0.999 ± 0.015
TGTTGGTTAG | 0.989 ± 0.014
TGTTGGTTGC | 0.988 ± 0.033
TGTTGTATAA | 1.2 ± 0.26
TGTTGTATAT | 1 ± 0.023
TGTTGTCAAG | 1.01 ± 0.026
TGTTGTGCAG | 0.958 ± 0.03

Sequence | switch fluorescence ratio
TGTTGTGGGG | 0.96 ± 0.025
TGTTGTGGTG | 1 ± 0.033
TGTTGTTGTA | 1.015 ± 0.0081
TGTTGTTTTG | 1 ± 0.042
TGTTTAATTT | 1.03 ± 0.072
TGTTTAGGAG | 1.014 ± 0.0078
TGTTTAGGGG | 1.01 ± 0.025
TGTTTATGAC | 0.9847 ± 0.0081
TGTTTATTGG | 1.01 ± 0.065
TGTTTATTTA | 0.983 ± 0.0018
TGTTTCATTT | 0.989 ± 0.016
TGTTTCGGTT | 0.943 ± 0.044
TGTTTCTATT | 0.9925 ± 0.0055
TGTTTGAAAT | 0.998 ± 0.034
TGTTTGAGGT | 0.999 ± 0.033
TGTTTGCGAA | 1.01 ± 0.045
TGTTTGCTTT | 0.986 ± 0.023
TGTTTGGGGA | 0.997 ± 0.018
TGTTTGGGGT | 0.996 ± 0.055
TGTTTGGGTA | 1 ± 0.07
TGTTTGGTCA | 0.976 ± 0.065
TGTTTGGTTG | 1.01 ± 0.017
TGTTTGTAGA | 1.03 ± 0.018
TGTTTGTGCT | 0.983 ± 0.027
TGTTTGTTAC | 1.011 ± 0.0076

Sequence | switch fluorescence ratio
TGTTTGTTCG | 0.986 ± 0.021
TGTTTGTTCT | 0.976 ± 0.014
TGTTTGTTTG | 1 ± 0.036
TGTTTTAACT | 1.01 ± 0.017
TGTTTTACTG | 0.996 ± 0.015
TGTTTTAGTG | 0.994 ± 0.021
TGTTTTATAA | 0.995 ± 0.024
TGTTTTCATT | 0.973 ± 0.044
TGTTTTCTTT | 0.987 ± 0.019
TGTTTTGGCA | 0.9963 ± 0.0052
TGTTTTGGG | 0.992 ± 0.042
TGTTTTTAA | 1 ± 0.062
TTAAAAAACG | 1.04 ± 0.052
TTAAAAAAGA | 0.998 ± 0.013
TTAAAAAATG | 1.03 ± 0.042
TTAAAAATAC | 1.06 ± 0.025
TTAAAAATAT | 1.02 ± 0.053
TTAAAAATTT | 0.976 ± 0.025
TTAAAAGAT | 0.998 ± 0.035
TTAAAAGCGA | 0.974 ± 0.023
TTAAAAGCGG | 1.03 ± 0.013
TTAAAAGGAG | 1.01 ± 0.044
TTAAAAGGG | 0.9979 ± 0.007
TTAAAAGGGA | 1.02 ± 0.07
TTAAAAGTGT | 0.999 ± 0.026
